Experimental findings from patent publication US10568344B2, “Methods of improving animal performance” (Novozymes A/S, priority 2015, dated 2020) are described below.

This test in a line: In vivo broiler trial 4, FCR and EPEF. Further details: species or system male broiler type chickens (Cobb 500). As to conditions: 50 mg/kg in Grower feed (Days 8-24). How it is done: Diet composition was designed to meet or exceed the requirements except for metabolisable energy, phosphorus and calcium (tables 15 and 16). […] During the Grower period, the lysozyme (SEQ ID NO: 1) was applied at […] as a liquid formulation (table 14). There were no other enzymes or any coccidiostats supplemented in the diets. The diets were prepared at a […] specialised in experimental diets and the mash feed was offered ad libitum to the birds. At the day of hatching, male day-old broiler type chickens (male byproducts of female parental line of Cobb 500) were obtained from Cobb Germany […] GmbH, […] (Brö[…] birds were randomly assigned in groups of 22 chickens to the experimental pens ( 3 sq·m.) equipped with a bell drinker and a round feeder. After 7 days of equal rearing, number of birds per pen was reduced to 20, selecting against obviously light birds. Recorded body weights (BW) were immediately statistically evaluated. In order to ensure similar average BW between treatments and variation within treatments statistical evaluation of BW-placement of chicks was coordinated in such a way as to minimize within-pen variation and between-treatment differences of average BW. Feed and water were freely available, feed consumption was recorded. Initial bedding consisted of wood shavings. Caked excreta patches around the drinkers were removed several times during the experimental period and more bedding material was added when required. Light and temperature regimes were managed according to the breeder's recommendations. Birds were weighed (groupwise) at placement and at the end of each fattening period. At the final weighing, birds were weighed individually. Feed offered was recorded continuously upon refilling the feeders; the feed remaining in the feeders was recorded at the end of each fattening period. […] Daily BW gain per bird (BW gain) and feed conversion ratio (FCR) were calculated as follows: BWgain: difference between BW per bird at the end and at the beginning of the study divided by the number of days FCR: total feed consumption of a pen divided by total BW gain of that pen (total BW gain=total BW at the end+weight of removals and losses-total BW at the beginning) The European Production Efficacy Factor (EEF) was calculated as follows: EEF=[(liveability,%×BWgain,kg)/(Study duration in days×FCR)]×100. Statistical Analysis Data of performance was analysed using a bi-factorial ANOVA (procedure PROC GLM) with the fixed effects of lysozyme supplementation as well as their interaction. Differences were investigated between the various levels of each main factor (Tukey test), accounting for multiple comparisons where appropriate.

B1: SEQ ID NO: 1: mature amino acid sequence of a wild type GH25 lysozyme from Acremonium alcalophilum with N-terminal SPIRR (protein)
chain: SPIRRRIPGFDISGWQPTTDFARAYANGDRFVYIKATEGTTFKSSAFSRQYTGATQNGFIRGAYHFAQPAASSGAAQARYFASNGGGWSKDGITLPGALDIEYNPNGATCYGLSQSAMVNWIEDFVTTYHGITSRWPVIYTTTDWWTQCTGNSNRFANRCPLWIARYASSVGTLPNGWGFYTFWQYNDKYPQGGDSNWFNGDASRLRALANGD
modifications: Wild type sequence with N-terminal SPIRR
B1 registered an EPEF of 327 and an FCR of 1.56. For the setting “vs no lysozyme”, this molecule registered an EPEF % improvement of 3.8%, an EPEF change of 12, an FCR % improvement of 1.9% and an FCR change of 0.03.
